# T1: human parathyroid hormone, P01270
# T1 chain: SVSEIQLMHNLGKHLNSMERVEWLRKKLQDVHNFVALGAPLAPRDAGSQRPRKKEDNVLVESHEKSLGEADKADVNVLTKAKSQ
# B1: Hansenula polymorpha yapsin1 (protein)
# chain: DPQFVKLEASVLRGSTYKDSQKGAKPFMLEKRADDGSVTMELQNAQSFYQVEIEIGSDKQKVGVLIDTGSSDLWVMNSNNSYCSSSSTKKLKRDGPADALQKGRDLSDLYNFNSPNEDNNAKGFLGGWGDLTTVETATQDETQTALAAQATVDCSLYGTFNPSTSNSFHNNGTTFEISYADRTFARGTWGYDDVTFNGVTVNDLSLAVADETDSSTGVFGIGLRELETTYSGGGPQHYIYDNLPFKMVDQGLINRAAYSVYLNSTESSTASILFGAVDQSKYTGSLGLLPIINTAASYGYQKPLRLQITLSAITVSDSRGQQASIGSGAAAALLDTGTTLTYAPSEIVEKLAETLGFDYSSSVGAYVARCRDVDSYAVNFDFQGKVIEAPLSSFLIALQTNSGEVSSYCALGIFSSGDESFTLGDTFLRNAYFVADLEGYQIAIANVNLNPGAEQIEVISGNSIPSASSVSDYSNTWGASATALDTDRPTTLGSVTAVGDERVTSTKKVSSVKTSTSSGSGSTSESSTSSSHSSNGPRTVGFSLCAVLCAFLISILVV
# Molecular target: T1, human parathyroid hormone, P01270
protein,measurement,value
B1,"degradation level of hPTH by the yapsin activity (culture supernatant incubated with hPTH for 2, 4 and 6 hours at 37 C, SDS-polyacrylamide gel)","in the culture fluid of the wild type, it was already hard to observe hPTH remaining in the culture supernatant after 2 hour cultivation, while in the culture supernatant of hpyps1Δ mutant strain, a substantial amount of hPTH was observed"

# Source: patent US20050239074
